# Measurements reported in IntAct's records for PubMed 29892012.
# B1: F-box/LRR-repeat protein 12 (Homo sapiens), Q9NXK8 (parent)
# chain: MATLVELPDSVLLEIFSYLPVRDRIRISRVCHRWKRLVDDRWLWRHVDLTLYTMRPKVMWHLLRRYMASRLHSLRMGGYLFSGSQAPQLSPALLRALGQKCPNLKRLCLHVADLSMVPITSLPSTLRTLELHSCEISMAWLHKQQDPTVLPLLECIVLDRVPAFRDEHLQGLTRFRALRSLVLGGTYRVTETGLDAGLQELSYLQRLEVLGCTLSADSTLLAISRHLRDVRKIRLTVRGLSAPGLAVLEGMPALESLCLQGPLVTPEMPSPTEILSSCLTMPKLRVLELQGLGWEGQEAEKILCKGLPHCMVIVRACPKESMDWWM
# partner: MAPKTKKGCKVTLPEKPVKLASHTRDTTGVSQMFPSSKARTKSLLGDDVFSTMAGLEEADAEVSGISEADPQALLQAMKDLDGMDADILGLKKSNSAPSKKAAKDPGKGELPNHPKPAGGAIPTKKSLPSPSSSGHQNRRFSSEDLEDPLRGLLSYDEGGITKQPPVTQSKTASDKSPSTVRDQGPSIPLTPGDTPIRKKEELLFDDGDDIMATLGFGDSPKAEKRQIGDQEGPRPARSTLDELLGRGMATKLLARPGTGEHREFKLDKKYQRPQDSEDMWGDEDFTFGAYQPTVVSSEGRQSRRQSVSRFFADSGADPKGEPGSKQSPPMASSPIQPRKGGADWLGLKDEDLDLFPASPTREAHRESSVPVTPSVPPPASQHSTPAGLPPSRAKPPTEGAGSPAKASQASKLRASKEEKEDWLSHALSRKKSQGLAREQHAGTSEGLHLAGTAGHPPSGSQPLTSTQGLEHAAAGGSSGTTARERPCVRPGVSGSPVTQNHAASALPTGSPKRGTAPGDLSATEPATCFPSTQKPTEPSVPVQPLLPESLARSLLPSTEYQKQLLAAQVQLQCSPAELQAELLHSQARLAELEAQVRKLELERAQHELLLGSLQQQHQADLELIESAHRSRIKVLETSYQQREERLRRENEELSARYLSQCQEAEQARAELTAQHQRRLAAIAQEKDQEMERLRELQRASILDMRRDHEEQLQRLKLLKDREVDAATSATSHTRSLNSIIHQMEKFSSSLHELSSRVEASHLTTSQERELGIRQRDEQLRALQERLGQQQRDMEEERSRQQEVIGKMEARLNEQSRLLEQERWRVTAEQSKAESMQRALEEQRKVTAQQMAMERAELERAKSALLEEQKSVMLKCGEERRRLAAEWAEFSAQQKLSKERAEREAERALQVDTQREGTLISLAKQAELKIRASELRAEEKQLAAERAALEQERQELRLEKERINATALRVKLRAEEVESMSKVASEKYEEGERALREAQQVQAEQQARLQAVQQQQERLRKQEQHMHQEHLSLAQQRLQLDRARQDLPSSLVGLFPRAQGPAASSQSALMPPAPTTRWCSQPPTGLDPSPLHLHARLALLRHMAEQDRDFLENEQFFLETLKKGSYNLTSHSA
# B2: Vacuolar protein-sorting-associated protein 25 (Homo sapiens), Q9BRG1 (parent)
# chain: MAMSFEWPWQYRFPPFFTLQPNVDTRQKQLAAWCSLVLSFCRLHKQSSMTVMEAQESPLFNNVKLQRKLPVESIQIVLEELRKKGNLEWLDKSKSSFLIMWRRPEEWGKLIYQWVSRSGQNNSVFTLYELTNGEDTEDEEFHGLDEATLLRALQALQQEHKAEIITVSDGRGVKFF
# partner: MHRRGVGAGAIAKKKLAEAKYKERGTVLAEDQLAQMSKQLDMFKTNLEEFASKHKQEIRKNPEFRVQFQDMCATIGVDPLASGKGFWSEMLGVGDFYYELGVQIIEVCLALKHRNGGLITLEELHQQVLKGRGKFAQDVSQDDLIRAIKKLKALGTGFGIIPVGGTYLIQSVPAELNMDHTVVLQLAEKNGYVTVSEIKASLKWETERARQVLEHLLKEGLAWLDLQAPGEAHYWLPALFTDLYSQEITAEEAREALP
# B3: Zinc finger protein 64 (Homo sapiens), Q9NTW7 (parent)
# chain: MNASSEGESFAGSVQIPGGTTVLVELTPDIHICGICKQQFNNLDAFVAHKQSGCQLTGTSAAAPSTVQFVSEETVPATQTQTTTRTITSETQTITVSAPEFVFEHGYQTYLPTESNENQTATVISLPAKSRTKKPTTPPAQKRLNCCYPGCQFKTAYGMKDMERHLKIHTGDKPHKCEVCGKCFSRKDKLKTHMRCHTGVKPYKCKTCDYAAADSSSLNKHLRIHSDERPFKCQICPYASRNSSQLTVHLRSHTASELDDDVPKANCLSTESTDTPKAPVITLPSEAREQMATLGERTFNCCYPGCHFKTVHGMKDLDRHLRIHTGDKPHKCEFCDKCFSRKDNLTMHMRCHTSVKPHKCHLCDYAAVDSSSLKKHLRIHSDERPYKCQLCPYASRNSSQLTVHLRSHTGDTPFQCWLCSAKFKISSDLKRHMIVHSGEKPFKCEFCDVRCTMKANLKSHIRIKHTFKCLHCAFQGRDRADLLEHSRLHQADHPEKCPECSYSCSSAAALRVHSRVHCKDRPFKCDFCSFDTKRPSSLAKHVDKVHRDEAKTENRAPLGKEGLREGSSQHVAKIVTQRAFRCETCGASFVRDDSLRCHKKQHSDQSENKNSDLVTFPPESGASGQLSTLVSVGQLEAPLEPSQDL
# partner: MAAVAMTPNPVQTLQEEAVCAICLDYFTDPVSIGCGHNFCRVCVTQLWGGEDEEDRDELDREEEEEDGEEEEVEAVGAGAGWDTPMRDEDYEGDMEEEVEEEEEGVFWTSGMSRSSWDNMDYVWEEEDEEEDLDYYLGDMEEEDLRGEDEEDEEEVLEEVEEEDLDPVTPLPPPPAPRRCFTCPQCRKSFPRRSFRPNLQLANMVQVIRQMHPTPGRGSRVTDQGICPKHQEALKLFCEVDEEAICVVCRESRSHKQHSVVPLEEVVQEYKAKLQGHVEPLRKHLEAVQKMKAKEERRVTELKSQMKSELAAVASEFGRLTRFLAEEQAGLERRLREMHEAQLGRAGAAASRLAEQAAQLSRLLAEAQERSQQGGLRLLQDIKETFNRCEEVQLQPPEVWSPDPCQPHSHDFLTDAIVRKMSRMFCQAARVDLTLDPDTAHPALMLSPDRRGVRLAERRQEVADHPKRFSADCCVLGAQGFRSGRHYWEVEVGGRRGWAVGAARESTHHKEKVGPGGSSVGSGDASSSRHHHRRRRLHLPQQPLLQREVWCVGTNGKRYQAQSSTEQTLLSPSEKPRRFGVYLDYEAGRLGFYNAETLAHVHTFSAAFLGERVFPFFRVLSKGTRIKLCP
# B4: Forkhead box protein S1 (Homo sapiens), O43638 (parent)
# chain: MQQQPLPGPGAPTTEPTKPPYSYIALIAMAIQSSPGQRATLSGIYRYIMGRFAFYRHNRPGWQNSIRHNLSLNECFVKVPRDDRKPGKGSYWTLDPDCHDMFEHGSFLRRRRRFTRQTGAEGTRGPAKARRGPLRATSQDPGVPNATTGRQCSFPPELPDPKGLSFGGLVGAMPASMCPATTDGRPRPPMEPKEISTPKPACPGELPVATSSSSCPAFGFPAGFSEAESFNKAPTPVLSPESGIGSSYQCRLQALNFCMGADPGLEHLLASAAPSPAPPTPPGSLRAPLPLPTDHKEPWVAGGFPVQGGSGYPLGLTPCLYRTPGMFFFE
# B5: Coiled-coil domain-containing protein 120 (Homo sapiens), Q96HB5-4 (parent)
# chain: MRREPRYQGQVGPDIHTDSERTLSSHQPRPLDSTKMEVKGQLISSPTFNAPAALFGEAAPQVKSERLRGLLDRQRTLQEALSLKLQELRKVCLQEAELTGQLPPECPLEPGERPQLVRRRPPTARAYPPPHPNQAHHSLCPAEELALEALEREVSVQQQIAAAARRLALAPDLSTEQRRRRRQVQADALRRLHELEEQLRDVRARLGLPVLPLPQPLPLSTGSVITTQGVCLGMRLAQLSQEDVVLHSESSSLSESGASHDNEEPHGCFSLAERPSPPKAWDQLRAVSGGSPERRTPWKPPPSDLYGDLKSRRNSVASPTSPTRSLPRSASSFEGRSVPATPVLTRGAGPQLCKPEGLHSRQWSGSQDSQMGFPRADPASDRASLFVARTRRSNSSEALLVDRAAGGGAGSPPAPLAPSASGPPVCKSSEVLYERPQPTPAFSSRTAGPPDPPRAARPSSAAPASRGAPRLPPVCGDFLLDYSLDRGLPRSGGGTGWGELPPAAEVPGPLSRRDGLLTMLPGPPPVYAADSNSPLLRTKDPHTRATRTKPCGLPPEAAEGPEVHPNPLLWMPPPTRIPSAGERSGHKNLALEGLRDWYIRNSGLAAGPQRRPVLPSVGPPHPPFLHARCYEVGQALYGAPSQAPLPHSRSFTAPPVSGRYYADFLYPPELSARLSDLTLEGEQSSSSDTQTPGTLV
# partner: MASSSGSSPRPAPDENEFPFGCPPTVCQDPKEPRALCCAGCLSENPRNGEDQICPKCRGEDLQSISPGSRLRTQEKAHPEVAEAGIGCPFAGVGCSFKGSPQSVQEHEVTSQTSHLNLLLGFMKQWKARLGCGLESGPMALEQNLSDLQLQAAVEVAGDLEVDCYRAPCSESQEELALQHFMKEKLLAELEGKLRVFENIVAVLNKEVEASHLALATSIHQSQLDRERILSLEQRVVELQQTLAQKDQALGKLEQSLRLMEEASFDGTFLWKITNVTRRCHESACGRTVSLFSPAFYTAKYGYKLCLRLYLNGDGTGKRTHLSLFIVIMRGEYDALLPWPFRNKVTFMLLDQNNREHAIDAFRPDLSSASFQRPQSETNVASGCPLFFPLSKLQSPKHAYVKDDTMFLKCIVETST
# B6: Palmitoyltransferase ZDHHC22 (Homo sapiens), Q8N966 (parent)
# chain: MLALRLLNVVAPAYFLCISLVTFVLQLFLFLPSMREDPAAARLFSPALLHGALFLFLSANALGNYVLVIQNSPDDLGACQGASARKTPCPSPSTHFCRVCARVTLRHDHHCFFTGNCIGSRNMRNFVLFCLYTSLACLYSMVAGVAYISAVLSISFAHPLAFLTLLPTSISQFFSGAVLGSEMFVILMLYLWFAIGLACAGFCCHQLLLILRGQTRHQVRKGVAVRARPWRKNLQEVFGKRWLLGLLVPMFNVGSESSKQQDK
# partner: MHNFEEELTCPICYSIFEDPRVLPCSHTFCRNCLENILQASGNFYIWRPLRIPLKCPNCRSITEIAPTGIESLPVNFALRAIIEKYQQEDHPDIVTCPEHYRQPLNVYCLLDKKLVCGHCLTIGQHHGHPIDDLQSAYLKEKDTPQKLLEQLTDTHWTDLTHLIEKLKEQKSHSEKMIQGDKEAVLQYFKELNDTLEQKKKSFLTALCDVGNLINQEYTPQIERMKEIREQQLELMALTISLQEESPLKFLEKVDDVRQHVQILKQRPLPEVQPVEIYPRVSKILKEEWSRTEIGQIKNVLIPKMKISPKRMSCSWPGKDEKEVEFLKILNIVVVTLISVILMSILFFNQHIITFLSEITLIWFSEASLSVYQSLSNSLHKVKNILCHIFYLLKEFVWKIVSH
# B7: Protein VAC14 homolog (Homo sapiens), Q08AM6 (parent)
# chain: MNPEKDFAPLTPNIVRALNDKLYEKRKVAALEIEKLVREFVAQNNTVQIKHVIQTLSQEFALSQHPHSRKGGLIGLAACSIALGKDSGLYLKELIEPVLTCFNDADSRLRYYACEALYNIVKVARGAVLPHFNVLFDGLSKLAADPDPNVKSGSELLDRLLKDIVTESNKFDLVSFIPLLRERIYSNNQYARQFIISWILVLESVPDINLLDYLPEILDGLFQILGDNGKEIRKMCEVVLGEFLKEIKKNPSSVKFAEMANILVIHCQTTDDLIQLTAMCWMREFIQLAGRVMLPYSSGILTAVLPCLAYDDRKKSIKEVANVCNQSLMKLVTPEDDELDELRPGQRQAEPTPDDALPKQEGTASGGPDGSCDSSFSSGISVFTAASTERAPVTLHLDGIVQVLNCHLSDTAIGMMTRIAVLKWLYHLYIKTPRKMFRHTDSLFPILLQTLSDESDEVILKDLEVLAEIASSPAGQTDDPGPLDGPDLQASHSELQVPTPGRAGLLNTSGTKGLECSPSTPTMNSYFYKFMINLLKRFSSERKLLEVRGPFIIRQLCLLLNAENIFHSMADILLREEDLKFASTMVHALNTILLTSTELFQLRNQLKDLKTLESQNLFCCLYRSWCHNPVTTVSLCFLTQNYRHAYDLIQKFGDLEVTVDFLAEVDKLVQLIECPIFTYLRLQLLDVKNNPYLIKALYGLLMLLPQSSAFQLLSHRLQCVPNPELLQTEDSLKAAPKSQKADSPSIDYAELLQHFEKVQNKHLEVRHQRSGRGDHLDRRVVL
# partner: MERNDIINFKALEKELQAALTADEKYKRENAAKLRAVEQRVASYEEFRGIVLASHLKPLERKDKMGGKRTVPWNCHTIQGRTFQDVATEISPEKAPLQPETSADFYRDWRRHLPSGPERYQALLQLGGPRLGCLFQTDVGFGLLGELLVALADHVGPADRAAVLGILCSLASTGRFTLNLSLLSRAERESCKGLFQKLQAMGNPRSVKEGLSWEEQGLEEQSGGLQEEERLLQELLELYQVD
# Variants of: B1
# Details: with fbf1_human FBF1, Q8TES7
row,Variant,effect of a mutation on the interaction
1,I313V,with no effect

# Variants of: B2
# Details: with snf8_human SNF8, Q96H20
row,Variant,effect of a mutation on the interaction
1,P58Q,with no effect

# Variants of: B3
# Details: with tri41_human TRIM41, Q8WV44
row,Variant,effect of a mutation on the interaction
1,D227E,with no effect

# Variants of: B4
# Details: with rbpms_human RBPMS
row,Variant,effect of a mutation on the interaction
1,T147M,with no effect

# Variants of: B5
# Details: with traf1_human TRAF1, Q13077
row,Variant,effect of a mutation on the interaction
1,R346W,with no effect

# Variants of: B6
# Details: with tri59_human TRIM59, Q8IWR1
row,Variant,effect of a mutation on the interaction
1,L209F,with no effect

# Variants of: B7
# Details: with daa19_human DNAAF19, Q8IW40
row,Variant,effect of a mutation on the interaction
1,A127S,with no effect
